Biological target: human CD8α/β (human), P01732
Assay: ELISA on CD8αβ

human CD8α/β (human), P01732, sequence (P01732 22-182, chain 1 of 2): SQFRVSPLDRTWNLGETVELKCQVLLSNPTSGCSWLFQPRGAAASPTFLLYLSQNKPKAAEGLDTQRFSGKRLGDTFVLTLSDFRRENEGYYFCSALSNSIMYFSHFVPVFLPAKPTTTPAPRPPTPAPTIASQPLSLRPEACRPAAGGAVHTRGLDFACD
human CD8α/β (human), P01732, sequence (P10966 22-170, chain 2 of 2, further chain): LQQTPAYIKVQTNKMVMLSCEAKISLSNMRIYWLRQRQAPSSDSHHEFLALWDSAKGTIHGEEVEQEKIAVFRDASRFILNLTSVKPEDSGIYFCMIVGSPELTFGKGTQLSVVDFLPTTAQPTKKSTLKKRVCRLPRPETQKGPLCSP

In the case of KHYTN (modifications not checked) [khytn (SEQ ID NO:82)], the EC50 is reported as 6 µM.

From US20200291391A1, “CROSS-LINKED EPITOPES AND METHODS OF USE THEREOF” (Indi Molecular, Inc., priority 2019, published 2020)
